Target: mouse platelet glycoprotein Ibα (mouse (endogenous in platelets)) (UniProt O35930)
Chain of UniProt O35930 (O35930 17-734): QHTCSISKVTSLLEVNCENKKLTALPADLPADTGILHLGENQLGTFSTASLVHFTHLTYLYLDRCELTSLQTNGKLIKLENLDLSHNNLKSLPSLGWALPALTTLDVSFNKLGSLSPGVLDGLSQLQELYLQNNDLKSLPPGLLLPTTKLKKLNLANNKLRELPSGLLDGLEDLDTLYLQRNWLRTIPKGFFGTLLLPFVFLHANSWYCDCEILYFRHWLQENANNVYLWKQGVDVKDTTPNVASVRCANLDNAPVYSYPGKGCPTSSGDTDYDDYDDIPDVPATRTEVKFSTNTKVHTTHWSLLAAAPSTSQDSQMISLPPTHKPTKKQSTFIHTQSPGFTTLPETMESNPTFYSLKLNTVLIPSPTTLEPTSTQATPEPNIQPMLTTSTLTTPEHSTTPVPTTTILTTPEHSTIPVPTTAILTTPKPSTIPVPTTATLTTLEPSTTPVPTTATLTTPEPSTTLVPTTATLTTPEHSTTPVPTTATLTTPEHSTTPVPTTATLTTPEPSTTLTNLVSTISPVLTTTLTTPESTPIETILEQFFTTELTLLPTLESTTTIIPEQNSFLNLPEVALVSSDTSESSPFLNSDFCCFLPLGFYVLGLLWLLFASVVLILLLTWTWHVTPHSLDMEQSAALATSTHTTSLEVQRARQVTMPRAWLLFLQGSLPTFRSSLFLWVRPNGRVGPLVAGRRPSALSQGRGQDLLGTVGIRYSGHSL

translocation (rolling) velocity of Mical1+/+ platelets on immobilised recombinant mouse VWF at 1500 s-1 after αIIbβ3 blockade: 1.41 μm/s
Substance: recombinant mouse von Willebrand factor, Q8CIZ8 764-2813

— paper PMC12335590
